According to paper PMC3083827:

Target: T1, Whn (FoxN1) DNA binding domain, WhnDBD (UniProt Q61575 271-367)
T1 sequence: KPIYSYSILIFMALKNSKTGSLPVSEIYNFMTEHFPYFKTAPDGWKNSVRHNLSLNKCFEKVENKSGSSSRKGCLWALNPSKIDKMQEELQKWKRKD
Assay: EMSA

B1: MUT (S1P with core CG to TA) (dsDNA)
DNA 1: CTCCTCCCTGCGCGAAGCGGAAGTGATACGAGGCGTAGCGGAAGTT
DNA 2: AACTTCCGCTACGCCTCGTATCACTTCCGCTTCGCGCAGGGAGGAG
binding result: no binding
